This note sets out measurements from patent US20250145684A1 (IMMATICS BIOTECHNOLOGIES, published 2025).

In this experiment the target is T1, HLA-B*08:01 (human).
T1 construct: MHC monomer first loaded with a UV-sensitive peptide that is cleaved by UV light and exchanged for the test peptide
In words: UV peptide exchange ELISA. In outline: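 Peptide–MHC complexes formed by UV-mediated exchange of a photocleavable ligand; exchange yield assessed by ELISA on streptavidin-coated plates, samples diluted 100-fold. Bound complexes detected with HRP anti-β2m and TMB at 450 nm against HLA-A*02:01 monomer standards (15–500 ng/ml).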
Background: An ELISA detects its analyte on a solid surface through an enzyme-linked reagent.

In turn, FLRVFTDSL [FLRVFTDSL (SEQ ID NO: 49)] displayed a peptide exchange yield of 50 to 75%.

AARLRPAL [AARLRPAL (SEQ ID NO: 7)] had a peptide exchange yield of 20 to 50%.

In the case of MLHIKKAEV [MLHIKKAEV (SEQ ID NO: 60)], the peptide exchange yield lay in the range of 50 to 75%.

With FMLAKEASL [FMLAKEASL (SEQ ID NO: 62)], the peptide exchange yield was in the range of 20 to 50%.

Turning to DLKIPRYPV [DLKIPRYPV (SEQ ID NO: 68)], the peptide exchange yield lay in the range of 50 to 75%.

Molecule FVRPKLVTI [FVRPKLVTI (SEQ ID NO: 8)] had a peptide exchange yield of 50 to 75%.

For LPKLPVPPL [LPKLPVPPL (SEQ ID NO: 77)], the peptide exchange yield lay in the range of 50 to 75%.

With YARLKNVLL [YARLKNVLL (SEQ ID NO: 75)], the peptide exchange yield lay within 50 to 75%.

As to NPYLKLVL [NPYLKLVL (SEQ ID NO: 32)], the peptide exchange yield fell in the range of 20 to 50%.

On to DGHMKVFSL [DGHMKVFSL (SEQ ID NO: 78)], for which the peptide exchange yield is 20 to 50%.

DAAAFFKSV [DAAAFFKSV (SEQ ID NO: 251)] returned a peptide exchange yield of 20 to 50%.

In the case of MFPARGVPL [MFPARGVPL (SEQ ID NO: 73)], the peptide exchange yield fell in the range of 20 to 50%.

HSRVKLAQL [HSRVKLAQL (SEQ ID NO: 47)] returned a peptide exchange yield of 20 to 50%.

As for DAKSKIEQI [DAKSKIEQI (SEQ ID NO: 39)], the peptide exchange yield lay within 20 to 50%.

YVKRKTNVL [YVKRKTNVL (SEQ ID NO: 63)]: the peptide exchange yield was 20 to 50%.

In the case of DLSRRDVSL [DLSRRDVSL (SEQ ID NO: 54)], the peptide exchange yield lay within 20 to 50%.

As for EAFSRASL [EAFSRASL (SEQ ID NO: 37)], the peptide exchange yield lay within 20 to 50%.

RPKGTPPL [RPKGTPPL (SEQ ID NO: 70)] came in with a peptide exchange yield of 20 to 50%.

Regarding EVYQKIIL [EVYQKIIL (SEQ ID NO: 38)], the peptide exchange yield is 50 to 75%.

Consider HLTNRVLSL [HLTNRVLSL (SEQ ID NO: 44)], for which the peptide exchange yield lay within 50 to 75%.

As for HIRIKHTF [HIRIKHTF (SEQ ID NO: 71)], the peptide exchange yield lay within 50 to 75%.

Molecule SIQSRYISM [SIQSRYISM (SEQ ID NO: 3)] returned a peptide exchange yield of 50 to 75%.

DLKKLVDSL [DLKKLVDSL (SEQ ID NO: 43)] gave a peptide exchange yield of 50 to 75%.

The molecule DLRNKIIAA [DLRNKIIAA (SEQ ID NO: 46)] gave a peptide exchange yield of 50 to 75%.

On to DLQKKAQAL [DLQKKAQAL (SEQ ID NO: 30)], for which the peptide exchange yield is 20 to 50%.

As for ELALRQTV [ELALRQTV (SEQ ID NO: 48)], the peptide exchange yield lay within 20 to 50%.

Molecule AARAPPQAL [AARAPPQAL (SEQ ID NO: 250)] yielded a peptide exchange yield of 20 to 50%.

Regarding EVYLRMYQL [EVYLRMYQL (SEQ ID NO: 80)], the peptide exchange yield is 50 to 75%.

For the molecule MYRKEQYL [MYRKEQYL (SEQ ID NO: 81)], the peptide exchange yield was in the range of 20 to 50%.

For the molecule ILCGSRKMPL [ILCGSRKMPL (SEQ ID NO: 56)], the peptide exchange yield is 20 to 50%.

As for WIGLRNLDL [WIGLRNLDL (SEQ ID NO: 33)], the peptide exchange yield fell in the range of 50 to 75%.

Molecule DARCKLAEL [DARCKLAEL (SEQ ID NO: 26)] displayed a peptide exchange yield of 20 to 50%.

For the molecule ELFQRPVL [ELFQRPVL (SEQ ID NO: 35)], the peptide exchange yield was 20 to 50%.

For FDFRGKTKVF [FDFRGKTKVF (SEQ ID NO: 59)], the peptide exchange yield fell in the range of 20 to 50%.

Regarding RLKVALSTL [RLKVALSTL (SEQ ID NO: 45)], the peptide exchange yield lay in the range of 50 to 75%.

Take NLLMRNVL [NLLMRNVL (SEQ ID NO: 65)]: the peptide exchange yield lay in the range of 20 to 50%.

As to STMPKILAL [STMPKILAL (SEQ ID NO: 5)], the peptide exchange yield was 50 to 75%.

Take ELFLHPVL [ELFLHPVL (SEQ ID NO: 29)]: the peptide exchange yield lay within 20 to 50%.

As to ELARQRLL [ELARQRLL (SEQ ID NO: 69)], the peptide exchange yield was 20 to 50%.

Take DLRKLKRQL [DLRKLKRQL (SEQ ID NO: 53)]: the peptide exchange yield lay within 20 to 50%.

Molecule DMNTKRAIHTL [DMNTKRAIHTL (SEQ ID NO: 67)] came in with a peptide exchange yield of 20 to 50%.

As to RLKLRYEGL [RLKLRYEGL (SEQ ID NO: 74)], the peptide exchange yield was in the range of 50 to 75%.

On to FVLLRSVDL [FVLLRSVDL (SEQ ID NO: 83)], for which the peptide exchange yield fell in the range of 50 to 75%.

Take YITRQFVQF [YITRQFVQF (SEQ ID NO: 84)]: the peptide exchange yield fell in the range of 20 to 50%.

The molecule QVMPKTGL [QVMPKTGL (SEQ ID NO: 4)] showed a peptide exchange yield of 20 to 50%.

Turning to TLRLLVAAL [TLRLLVAAL (SEQ ID NO: 50)], the peptide exchange yield lay within 50 to 75%.

On to ESMLKTTL [ESMLKTTL (SEQ ID NO: 40)], for which the peptide exchange yield is 20 to 50%.

Regarding IYRKKYIL [IYRKKYIL (SEQ ID NO: 34)], the peptide exchange yield lay in the range of 20 to 50%.

The molecule RGALRTLSL [RGALRTLSL (SEQ ID NO: 41)] displayed a peptide exchange yield of 20 to 50%.

The molecule GLARIYSF [GLARIYSF (SEQ ID NO: 79)] displayed a peptide exchange yield of 20 to 50%.

Regarding FILGREAGAL [FILGREAGAL (SEQ ID NO: 64)], the peptide exchange yield was in the range of 20 to 50%.

In turn, VLLSRRTAL [VLLSRRTAL (SEQ ID NO: 55)] had a peptide exchange yield of 20 to 50%.

Take LPKKMKLL [LPKKMKLL (SEQ ID NO: 58)]: the peptide exchange yield is 20 to 50%.

As to HPRLKVNLL [HPRLKVNLL (SEQ ID NO: 76)], the peptide exchange yield lay within 50 to 75%.

DLKKTRVL [DLKKTRVL (SEQ ID NO: 66)] came in with a peptide exchange yield of 20 to 50%.

SIKKELVVL [SIKKELVVL (SEQ ID NO: 61)] showed a peptide exchange yield of 20 to 50%.

In turn, HLHPKGREL [HLHPKGREL (SEQ ID NO: 25)] yielded a peptide exchange yield of 20 to 50%.

The molecule NRQKRFVL [NRQKRFVL (SEQ ID NO: 6)] had a peptide exchange yield of 20 to 50%.

SPRVKWTF [SPRVKWTF (SEQ ID NO: 31)] gave a peptide exchange yield of 20 to 50%.

ERRVKVSSL [ERRVKVSSL (SEQ ID NO: 51)] displayed a peptide exchange yield of 50 to 75%.

As for MPLKHYLL [MPLKHYLL (SEQ ID NO: 57)], the peptide exchange yield was 20 to 50%.

As to ELILKHSL [ELILKHSL (SEQ ID NO: 52)], the peptide exchange yield was 50 to 75%.

In turn, LPLAHHIQL [LPLAHHIQL (SEQ ID NO: 72)] gave a peptide exchange yield of 50 to 75%.

As to SIRKRPML [SIRKRPML (SEQ ID NO: 82)], the peptide exchange yield is 20 to 50%.

Take VLRRKTLL [VLRRKTLL (SEQ ID NO: 42)]: the peptide exchange yield lay within 20 to 50%.

DPKSRLKSL [DPKSRLKSL (SEQ ID NO: 28)] displayed a peptide exchange yield of 20 to 50%.

On to IVKIKVQEL [IVKIKVQEL (SEQ ID NO: 36)], for which the peptide exchange yield was in the range of 20 to 50%.
